From paper PMC7255614, “Strain-specific joint invasion and colonization by Lyme disease spirochetes is promoted by outer surface protein C” (PLoS Pathogens, 2020)

How the values were obtained:
fibronectin [1] = molecular target: T1, fibronectin (UniProt P02751 32-2477); experiment: ELISA; wells coated with 10 μg/ml purified fibronectin in 0.05 M Na2CO3 pH 9.0; 0.03125-2 μM GST or GST-tagged OspC variants, 1 hr at ambient temperature; goat anti-GST and HRP-conjugated anti-goat IgG; estimated KD from a fit of OD405; conditions: both partners purified
fibronectin [2] = molecular target: T1, fibronectin; experiment: SPR; Biacore 3000; fibronectin on a CM5 chip; 0-500 nM untagged OspC variants injected at 10 μl/min, 25°C; 1:1 Langmuir model; KD from the average koff divided by kon of each run; conditions: both partners purified

T1 sequence (P02751 32-2477): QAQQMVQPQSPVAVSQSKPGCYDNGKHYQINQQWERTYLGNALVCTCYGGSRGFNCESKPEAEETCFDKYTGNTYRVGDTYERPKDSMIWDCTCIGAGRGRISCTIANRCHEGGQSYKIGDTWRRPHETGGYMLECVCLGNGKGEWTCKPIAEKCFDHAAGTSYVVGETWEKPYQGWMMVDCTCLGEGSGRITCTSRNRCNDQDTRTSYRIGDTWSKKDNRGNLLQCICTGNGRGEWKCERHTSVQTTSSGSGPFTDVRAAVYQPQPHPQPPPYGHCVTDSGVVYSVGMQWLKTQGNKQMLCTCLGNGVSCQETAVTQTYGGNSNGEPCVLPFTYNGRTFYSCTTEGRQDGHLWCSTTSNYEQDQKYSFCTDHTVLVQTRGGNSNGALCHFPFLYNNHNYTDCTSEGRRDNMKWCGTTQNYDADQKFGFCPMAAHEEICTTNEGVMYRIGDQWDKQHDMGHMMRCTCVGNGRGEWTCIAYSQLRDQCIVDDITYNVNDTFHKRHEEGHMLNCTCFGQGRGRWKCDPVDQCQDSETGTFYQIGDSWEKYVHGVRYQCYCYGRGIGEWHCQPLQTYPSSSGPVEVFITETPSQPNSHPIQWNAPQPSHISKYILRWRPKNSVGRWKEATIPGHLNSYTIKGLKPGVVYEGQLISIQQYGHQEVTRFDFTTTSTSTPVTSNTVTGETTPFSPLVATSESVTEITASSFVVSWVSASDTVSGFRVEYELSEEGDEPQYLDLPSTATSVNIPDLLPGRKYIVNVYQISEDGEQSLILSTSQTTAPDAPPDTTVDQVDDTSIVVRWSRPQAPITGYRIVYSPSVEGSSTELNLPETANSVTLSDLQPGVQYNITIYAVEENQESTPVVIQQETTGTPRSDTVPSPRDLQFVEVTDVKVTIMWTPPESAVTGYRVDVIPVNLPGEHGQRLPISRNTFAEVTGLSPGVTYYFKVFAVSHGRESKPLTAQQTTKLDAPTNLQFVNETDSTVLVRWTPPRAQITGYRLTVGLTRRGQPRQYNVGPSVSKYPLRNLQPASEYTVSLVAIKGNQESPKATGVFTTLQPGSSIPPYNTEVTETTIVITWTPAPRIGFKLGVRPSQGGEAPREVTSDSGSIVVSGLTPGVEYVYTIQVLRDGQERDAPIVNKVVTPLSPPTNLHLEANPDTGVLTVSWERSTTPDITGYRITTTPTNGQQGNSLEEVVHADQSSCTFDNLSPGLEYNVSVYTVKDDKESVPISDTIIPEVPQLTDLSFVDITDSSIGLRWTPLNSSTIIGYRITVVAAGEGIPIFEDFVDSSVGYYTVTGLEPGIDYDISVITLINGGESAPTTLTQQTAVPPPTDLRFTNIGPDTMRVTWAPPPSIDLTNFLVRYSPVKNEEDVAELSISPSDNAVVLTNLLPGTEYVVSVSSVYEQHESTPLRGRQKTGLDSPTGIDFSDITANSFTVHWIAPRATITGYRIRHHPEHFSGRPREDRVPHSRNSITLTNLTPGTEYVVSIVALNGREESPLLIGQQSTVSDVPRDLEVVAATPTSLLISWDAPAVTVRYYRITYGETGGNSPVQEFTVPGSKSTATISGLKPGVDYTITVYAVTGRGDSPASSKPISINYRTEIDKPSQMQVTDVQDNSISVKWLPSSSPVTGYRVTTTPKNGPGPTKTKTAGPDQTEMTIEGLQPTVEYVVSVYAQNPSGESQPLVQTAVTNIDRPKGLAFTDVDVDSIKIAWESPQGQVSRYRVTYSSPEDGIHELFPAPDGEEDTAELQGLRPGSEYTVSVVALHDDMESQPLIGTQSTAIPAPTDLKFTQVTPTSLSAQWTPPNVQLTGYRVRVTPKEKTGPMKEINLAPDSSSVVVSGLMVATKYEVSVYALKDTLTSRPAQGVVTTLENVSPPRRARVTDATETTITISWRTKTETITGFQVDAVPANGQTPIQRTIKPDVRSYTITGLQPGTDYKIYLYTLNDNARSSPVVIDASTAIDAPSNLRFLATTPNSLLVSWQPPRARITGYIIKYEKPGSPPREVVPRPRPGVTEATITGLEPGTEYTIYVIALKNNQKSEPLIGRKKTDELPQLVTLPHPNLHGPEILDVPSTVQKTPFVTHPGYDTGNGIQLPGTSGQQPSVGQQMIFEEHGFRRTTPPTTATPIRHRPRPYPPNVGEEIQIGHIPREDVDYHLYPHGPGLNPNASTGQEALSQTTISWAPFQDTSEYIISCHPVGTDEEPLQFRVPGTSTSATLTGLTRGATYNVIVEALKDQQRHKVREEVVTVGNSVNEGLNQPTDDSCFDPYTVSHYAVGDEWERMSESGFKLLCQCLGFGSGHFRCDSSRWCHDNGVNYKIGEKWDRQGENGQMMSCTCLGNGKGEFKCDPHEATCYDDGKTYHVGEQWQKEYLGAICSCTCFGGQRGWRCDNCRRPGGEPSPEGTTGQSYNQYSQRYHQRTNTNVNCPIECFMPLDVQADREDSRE

| Binder | Kd (fibronectin [1]) [nM] | Kd (fibronectin [2]) [nM] | koff (fibronectin [2]) [s⁻¹] | kon (fibronectin [2]) [M⁻¹ s⁻¹] |
| --- | --- | --- | --- | --- |
| GST-OspC_(B31-ECM)^- (natural protein, B. burgdorferi strain B31-A3, UniProt Q07337 19-210, looked up, Cloned into pGEX4T2 at BamHI and SalI; also called OspCECM^-; source: E. coli BL21(DE3), purified by glutathione chromatography) CNNSGKDGNTSANSADESVKGPNLTEISKKITDSNAVLLAVKEVEALLSSIDEIAAKAIGKKIHQNNGLDTENNHNGSLLAGAYAISTLIKQKLDGLMNEGLMEMIDAAMMCSETFTNKLKEKHTDLGKEGVTDADAKEAILKTNGTKTKGAEELGKLFESVEVLSKAAKEMLANSVKELTSPVVAESPKKP | 2140 |  |  |  |
| GST-OspCB31 (natural protein, Cloned into pGEX4T2 at BamHI and SalI; also called wild type OspCB31; source: E. coli BL21(DE3), purified by glutathione chromatography) CNNSGKDGNTSANSADESVKGPNLTEISKKITDSNAVLLAVKEVEALLSSIDEIAAKAIGKKIHQNNGLDTENNHNGSLLAGAYAISTLIKQKLDGLKNEGLKEKIDAAKKCSETFTNKLKEKHTDLGKEGVTDADAKEAILKTNGTKTKGAEELGKLFESVEVLSKAAKEMLANSVKELTSPVVAESPKKP | 3460 |  |  |  |
| OspCB31, untagged (natural protein, B. burgdorferi strain B31-A3, UniProt Q07337 19-210, looked up, OspC (outer surface protein C) of B. burgdorferi strain B31-A3, without GST tag; Probably the GST fusion with the tag removed) CNNSGKDGNTSANSADESVKGPNLTEISKKITDSNAVLLAVKEVEALLSSIDEIAAKAIGKKIHQNNGLDTENNHNGSLLAGAYAISTLIKQKLDGLKNEGLKEKIDAAKKCSETFTNKLKEKHTDLGKEGVTDADAKEAILKTNGTKTKGAEELGKLFESVEVLSKAAKEMLANSVKELTSPVVAESPKKP |  | 9210 | 0.13 | 19900 |
| GST-OspC_(VS461) (natural protein, B. afzelii strain VS461, UniProt Q0SL36 19-212, looked up, Cloned into pGEX4T2 at BamHI and SalI; source: E. coli BL21(DE3), purified by glutathione chromatography) CNNSGKGGDSASTNPADESAKGPNLTEISKKITDSNAFVLAVKEVETLVLSIDELAKKAIGQKIDNNNGLAALNNQNGSLLAGAYAISTLITEKLSKLKNLEELKTEIAKAKKCSEEFTNKLKSGHADLGKQDATDDHAKAAILKTHATTDKGAKEFKDLFESVEGLLKAAQVALTNSVKELTSPVVAESPKKP | 520 |  |  |  |
| OspC_(VS461), untagged (natural protein, B. afzelii strain VS461, UniProt Q0SL36 19-212, looked up, OspC (outer surface protein C) of B. afzelii strain VS461, without GST tag; Probably the GST fusion with the tag removed) CNNSGKGGDSASTNPADESAKGPNLTEISKKITDSNAFVLAVKEVETLVLSIDELAKKAIGQKIDNNNGLAALNNQNGSLLAGAYAISTLITEKLSKLKNLEELKTEIAKAKKCSEEFTNKLKSGHADLGKQDATDDHAKAAILKTHATTDKGAKEFKDLFESVEGLLKAAQVALTNSVKELTSPVVAESPKKP |  | 800 | 0.09 | 151000 |
